Values of other authors as cited in publication PMC3616122.

Molecular target: Cul3 NTD (Homo sapiens) (UniProt Q13618)
Experiment: ITC

Cul3 NTD (Homo sapiens), sequence (Q13618 20-381): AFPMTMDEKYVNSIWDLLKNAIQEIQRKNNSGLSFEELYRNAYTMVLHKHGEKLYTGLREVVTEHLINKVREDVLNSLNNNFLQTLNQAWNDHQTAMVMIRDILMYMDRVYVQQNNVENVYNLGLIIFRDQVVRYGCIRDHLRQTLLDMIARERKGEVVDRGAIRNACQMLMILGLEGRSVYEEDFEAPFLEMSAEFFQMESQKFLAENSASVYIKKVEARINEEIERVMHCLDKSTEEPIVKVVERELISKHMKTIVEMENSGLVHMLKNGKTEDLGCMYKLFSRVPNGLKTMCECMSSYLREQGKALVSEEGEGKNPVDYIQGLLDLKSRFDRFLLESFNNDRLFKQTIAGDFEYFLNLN
SPOP BTB-BACK, sequence (O43791 177-359): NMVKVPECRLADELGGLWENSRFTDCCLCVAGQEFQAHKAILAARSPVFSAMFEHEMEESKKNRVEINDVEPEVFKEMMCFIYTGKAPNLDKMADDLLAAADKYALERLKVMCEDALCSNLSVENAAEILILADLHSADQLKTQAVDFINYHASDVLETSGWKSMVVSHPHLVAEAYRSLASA
SPOP BTB, sequence (O43791 170-300): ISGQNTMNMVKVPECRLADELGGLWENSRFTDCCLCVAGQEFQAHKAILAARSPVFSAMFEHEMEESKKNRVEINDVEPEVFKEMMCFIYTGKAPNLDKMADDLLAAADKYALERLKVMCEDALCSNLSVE

For SPOP BTB (from UniProt O43791), the Kd is given as 1000 µM.

In the case of SPOP BTB-BACK (from UniProt O43791), the Kd is given as 0.013 µM.
